Source: PMC6712418

Target: Bovine plasma fibronectin (bovine) (UniProt P07589)
Experiment: dynamic single-molecule force spectroscopy (AFM); fibronectin adsorbed on a gold surface; integrin or proteoglycan tethered by PEG to the AFM tip; PBS; trigger force 500 pN, no dwell; retraction speed varied; Bell-Evans fit of rupture force against ln(loading rate), fm = 10^7 s^-1 assumed

Sequence of Bovine plasma fibronectin (bovine) (P07589 33-2478): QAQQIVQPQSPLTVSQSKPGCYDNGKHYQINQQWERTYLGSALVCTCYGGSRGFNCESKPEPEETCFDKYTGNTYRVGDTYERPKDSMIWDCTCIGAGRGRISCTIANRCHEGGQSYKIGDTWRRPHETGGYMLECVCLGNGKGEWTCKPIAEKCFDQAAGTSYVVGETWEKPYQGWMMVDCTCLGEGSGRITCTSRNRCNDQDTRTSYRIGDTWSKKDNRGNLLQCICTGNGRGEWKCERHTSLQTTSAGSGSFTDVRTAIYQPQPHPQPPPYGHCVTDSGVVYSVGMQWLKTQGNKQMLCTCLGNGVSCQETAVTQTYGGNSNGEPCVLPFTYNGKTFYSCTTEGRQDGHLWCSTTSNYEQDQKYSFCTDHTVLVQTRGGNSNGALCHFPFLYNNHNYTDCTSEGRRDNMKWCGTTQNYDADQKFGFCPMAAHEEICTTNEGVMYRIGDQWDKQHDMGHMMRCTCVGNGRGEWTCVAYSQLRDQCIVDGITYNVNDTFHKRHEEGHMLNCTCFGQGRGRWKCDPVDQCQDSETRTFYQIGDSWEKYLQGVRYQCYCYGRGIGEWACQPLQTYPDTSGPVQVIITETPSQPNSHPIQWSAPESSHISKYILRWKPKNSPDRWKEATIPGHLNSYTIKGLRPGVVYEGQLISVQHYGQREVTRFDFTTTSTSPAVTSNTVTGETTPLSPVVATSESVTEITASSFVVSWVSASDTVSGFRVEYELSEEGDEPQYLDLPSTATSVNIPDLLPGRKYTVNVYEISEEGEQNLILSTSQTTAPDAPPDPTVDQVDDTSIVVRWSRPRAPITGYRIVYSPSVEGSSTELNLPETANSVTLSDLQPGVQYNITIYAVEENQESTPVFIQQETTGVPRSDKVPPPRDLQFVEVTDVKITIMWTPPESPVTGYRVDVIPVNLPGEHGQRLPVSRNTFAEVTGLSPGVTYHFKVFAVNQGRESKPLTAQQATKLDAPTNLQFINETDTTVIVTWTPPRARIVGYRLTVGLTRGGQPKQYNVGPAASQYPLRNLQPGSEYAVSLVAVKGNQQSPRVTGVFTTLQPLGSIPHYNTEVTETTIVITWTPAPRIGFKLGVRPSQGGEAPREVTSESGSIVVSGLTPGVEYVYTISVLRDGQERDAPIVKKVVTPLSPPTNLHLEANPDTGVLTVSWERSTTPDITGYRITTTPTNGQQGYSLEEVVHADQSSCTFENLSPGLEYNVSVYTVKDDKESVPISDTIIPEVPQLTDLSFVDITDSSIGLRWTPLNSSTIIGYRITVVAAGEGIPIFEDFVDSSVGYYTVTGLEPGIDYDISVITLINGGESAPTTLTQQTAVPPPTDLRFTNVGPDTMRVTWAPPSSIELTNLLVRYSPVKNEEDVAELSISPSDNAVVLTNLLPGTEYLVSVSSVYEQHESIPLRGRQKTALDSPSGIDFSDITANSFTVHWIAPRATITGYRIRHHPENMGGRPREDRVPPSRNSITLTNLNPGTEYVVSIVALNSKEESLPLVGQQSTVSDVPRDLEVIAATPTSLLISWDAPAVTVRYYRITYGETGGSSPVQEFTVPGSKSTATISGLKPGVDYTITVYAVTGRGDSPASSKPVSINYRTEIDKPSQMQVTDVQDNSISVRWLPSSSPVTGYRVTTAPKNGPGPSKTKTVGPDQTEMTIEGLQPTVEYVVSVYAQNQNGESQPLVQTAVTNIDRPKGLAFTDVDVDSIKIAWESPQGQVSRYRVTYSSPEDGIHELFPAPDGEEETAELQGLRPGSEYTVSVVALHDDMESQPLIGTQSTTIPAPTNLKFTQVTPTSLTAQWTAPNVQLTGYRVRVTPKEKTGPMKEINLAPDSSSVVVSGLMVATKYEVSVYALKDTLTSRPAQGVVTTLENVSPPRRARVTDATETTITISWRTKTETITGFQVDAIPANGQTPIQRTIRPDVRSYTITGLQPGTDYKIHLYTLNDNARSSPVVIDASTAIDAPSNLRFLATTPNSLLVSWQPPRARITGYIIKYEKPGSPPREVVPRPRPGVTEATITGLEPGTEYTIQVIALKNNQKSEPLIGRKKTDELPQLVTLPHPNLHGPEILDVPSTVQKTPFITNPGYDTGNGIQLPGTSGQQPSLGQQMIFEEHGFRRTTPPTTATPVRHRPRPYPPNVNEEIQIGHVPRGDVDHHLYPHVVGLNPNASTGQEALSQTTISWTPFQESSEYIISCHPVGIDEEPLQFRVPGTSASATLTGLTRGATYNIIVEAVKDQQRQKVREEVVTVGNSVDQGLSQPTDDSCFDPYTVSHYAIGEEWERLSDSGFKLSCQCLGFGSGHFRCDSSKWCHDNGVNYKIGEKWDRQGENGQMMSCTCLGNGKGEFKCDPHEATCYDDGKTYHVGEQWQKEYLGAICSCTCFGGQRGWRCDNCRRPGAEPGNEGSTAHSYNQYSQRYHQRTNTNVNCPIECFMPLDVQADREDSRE

Substance: Recombinant human α5β1-integrin (from UniProt P08648 42-1049; P05556 21-728) (receptor)
- dissociation rate Kd, inner barrier: 70 s⁻¹
- dissociation rate Kd, outer barrier: 0.18 s⁻¹
